{"source": "paper PMC11642901", "about": "(bioRxiv, 2024)", "binders": {"B1": {"name": "anti-MOG IgG1 clone 8–18C5 (antibody, V domains shown)", "VH": "EVKLHESGAGLVKPGASVEISCKATGYTFSSFWIEWVKQRPGHGLEWIGEILPGRGRTNYNEKFKGKATFTAETSSNTAYMQLSSLTSEDSAVYYCATGNTMVNMPYWGQGTTVTVSS", "VL": "DIELTQSPSSLAVSAGEKVTMSCKSSQSLLNSGNQKNYLAWYQQKPGLPPKLLIYGASTRESGVPDRFTGSGSGTDFTLTISSVQAEDLAVYYCQNDHSYPLTFGAGTKLEIK"}}, "biological_target": "hMOG isoform 1 on live GL261 cells (human, UniProt Q16653)", "sequence (Q16653 30-247)": "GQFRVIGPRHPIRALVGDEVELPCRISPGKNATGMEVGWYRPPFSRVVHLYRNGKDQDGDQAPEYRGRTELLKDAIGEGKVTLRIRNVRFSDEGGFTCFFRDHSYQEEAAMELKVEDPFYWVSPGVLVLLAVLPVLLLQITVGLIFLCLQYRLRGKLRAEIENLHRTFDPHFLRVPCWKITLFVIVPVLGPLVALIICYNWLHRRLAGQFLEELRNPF", "assay": "flow cytometry on cells", "data": [{"binder": "B1", "values": [{"measurement": "binding result", "result": "binds"}]}]}
